Source: patent US12018066 (TRIAD NATIONAL SECURITY, dated 2024)

Legend:
[1] = biological target: T1, SARS-CoV spike protein receptor binding domain (RBD1) (SARS-CoV, UniProt P59594 306-527); test: ELISA, crude human minibody
[2] = biological target: T1, SARS-CoV spike protein receptor binding …; test: ELISA, crude rabbit minibody

| Binder | binding result [1] | binding result [2] |
| --- | --- | --- |
| G07 human minibody (scFv-human Fc) (Fc fusion) scFv-Fc: QSVLIQPPSASGTPGQRVTISCSGSNSNFGSNSVSWYQQRPGTAPKLLIEGNNQRPSGVPERFSGSKSGTSASLAISGLQSEDEAEYSCASWDDSLNAFVFGPGTKLTVLSGGSAITSYNVYYTKLSSSGTQVQLVQSGAEVKKPGESLKISCKGSGYSFTSYWIGWVRQMPGKGLEWMGIIYPGDSDIRYSPSFQGQVTISADKSFSSAYLQWSSLKASDTAMYYCARLGATGAFDIWGQGTTVTVSS | no binding |  |
| H03 human minibody (scFv-human Fc) (Fc fusion) scFv-Fc: SYELTQPPSVSVAPGQTARITCGGNNIGSKSVHWYQQKPGQAPVLVIYYDSDRPSGIPERFSGSNSGNTATLTISRVEAGDEADYYCQVWDSSSALYVFGTRTKVTVLSGGSTITSYNVYYTKLSSSGTQVQLVESGGGLVQPGRSLRLSCAASGFTFDDYAMHWVRQAPGKGLEWVSGISWNSGSIGYADSVKGRFTISRDNAKNSLYLQVNSLRAEDTAVYYCARELIVGTTSPQTDAFDIWGQGTMVTVSS | no binding |  |
| B04 human minibody (scFv-human Fc) (Fc fusion) scFv-Fc: SYVLTQPPSVSVAPGKTARITCGGNNIGIRSVHWYQQKPGQAPVLVIYYDSDRPSGIPERFSGSKSGNTATLTISRVEAGDEADYYCQVWDSSSDHPVFGGGTKLTVLSGGSTITSYNVYYTKLSSSGTQVQLVESGAEVKKPGASVKVSCKASGYTFTRYYMHWVRQAPGQGLEWMGIINPSGGTTSYAQKFQGRVTMTRDTSTSTVYMELSSLRSEDTAVYYCARSFGELTSFDYWGQGTLVTVSS | no binding |  |
| B04 rabbit minibody (scFv-rabbit Fc) (Fc fusion) scFv-Fc: SYVLTQPPSVSVAPGKTARITCGGNNIGIRSVHWYQQKPGQAPVLVIYYDSDRPSGIPERFSGSKSGNTATLTISRVEAGDEADYYCQVWDSSSDHPVFGGGTKLTVLSGGSTITSYNVYYTKLSSSGTQVQLVESGAEVKKPGASVKVSCKASGYTFTRYYMHWVRQAPGQGLEWMGIINPSGGTTSYAQKFQGRVTMTRDTSTSTVYMELSSLRSEDTAVYYCARSFGELTSFDYWGQGTLVTVSS |  | no binding |
| E08 rabbit minibody (scFv-rabbit Fc) (Fc fusion) scFv-Fc: SYVLTQPPSVSVAPGKTARITCGGNNIGWKSVHWYQQKPGQAPVLVVYDDSDRPSGIPERFSGSNSGNTATLTISRVEAGDEADYYCQVWDSSSDLVVFGGGTKLTVLSGGSTITSYNVYYTKLSSSGTQVQLVQSGAEVKKPGSSVKVSCKASGGTFSSYAISWVRQAPGQGLEWMGGIIPIFGTANYAQKFQGRVTITADESTSTAYMELSSLRSEDTAVYYCARASGRWLQFWHYYGMDVWGQGTTVTVSS |  | binds |
| H05 human minibody (scFv-human Fc) (Fc fusion) scFv-Fc: SYVLTQPPSVSVAPGQTARITCGANNIGRISVHWYQQKPGQAPVLVVYDDSDRPSGIPERFSGSNFGNTATLTISRVEAGDEADYYCQVWDSYSDHVIFGGGTKLTVLSGGSTITSYNVYYTKLSSSGTQVQLVQSGAEVKKPGSSVKVSCKASGGTFSSYAISWVRQAPGQGLEWMGGIIPIFGTANYAQKFQGRVTITADESTSTAYMELSSLRSEDTAVYYCARSIFGVVIISHADGYYYGMDVWGQGTTVTVSS | no binding |  |
| D10 human minibody (scFv-human Fc) (Fc fusion) scFv-Fc: QSVVTQPPSASGSPGQTVTISCSGNSANIGGNPVNWYQQLPGTAPKLLIYSNNQRPSGVPDRFSGSKSGISASLAISGLQSEDEADYYCAAWDDSLNGVIFGGGTKLTVLSGGSTITSYNVYYTKLSSSGTQVQLVQSGAEVKKPGESLKISCKGSGYSFTSYWIGWVRQMPGKGLEWMGIIYPGDSDTRYSPSFQGQVTISADKSISTAYLQWSSLKASDTAMYYCARRHSGSYSGAFDIWGQGTMVTVSS | no binding |  |
| D10 rabbit minibody (scFv-rabbit Fc) (Fc fusion) scFv-Fc: QSVVTQPPSASGSPGQTVTISCSGNSANIGGNPVNWYQQLPGTAPKLLIYSNNQRPSGVPDRFSGSKSGISASLAISGLQSEDEADYYCAAWDDSLNGVIFGGGTKLTVLSGGSTITSYNVYYTKLSSSGTQVQLVQSGAEVKKPGESLKISCKGSGYSFTSYWIGWVRQMPGKGLEWMGIIYPGDSDTRYSPSFQGQVTISADKSISTAYLQWSSLKASDTAMYYCARRHSGSYSGAFDIWGQGTMVTVSS |  | no binding |
| D11 human minibody (scFv-human Fc) (Fc fusion) scFv-Fc: SYELTQPPSVSVAPGQTARITCGGNNIGSKSVHWYQQKPGQAPVLVVYDDSDRPSGIPERFSGSNSGNTATLTISGTQAMDEADYYCQAWDSSTAYVFGSGTKLTVLSGGSTITSYNVYYTKLSSSGTQVQLEESGGGLVQPGGSLRLSCAASGFTFSNYAMSWVRQAPGKGLEWVSAISGSGGATFHADSVKGRFTISRDNSKNTLYLQMNSLRAEDTAVYYCARRVGYDSSGYYWSDAFDIWGQGTMVTVSS | no binding |  |
| B10 human minibody (scFv-human Fc) (Fc fusion) scFv-Fc: QSVVTQPPSVSGAPGQRVTISCTGSSSNIGSRTVNWYQQLPGTAPKLLIYANNQRPSGVPDRFSGSKSGTSASLAISGLQSEDEADYYCAAWDDSLNGYVFGTGTKLTVLSGGSTITSYNVYYTKLSSSGTQVQLQQSGPGLVKPSQTLSLTCAISGDSVSSNSATWNWIRQSPSRGLEWLGRTYYGSKWHSDYAVSVKSRITINPDTSKNQISLHLNPVTPEDTAVYYCARGRSYAFDIWDQGTMVTVSS | no binding |  |
| B10 rabbit minibody (scFv-rabbit Fc) (Fc fusion) scFv-Fc: QSVVTQPPSVSGAPGQRVTISCTGSSSNIGSRTVNWYQQLPGTAPKLLIYANNQRPSGVPDRFSGSKSGTSASLAISGLQSEDEADYYCAAWDDSLNGYVFGTGTKLTVLSGGSTITSYNVYYTKLSSSGTQVQLQQSGPGLVKPSQTLSLTCAISGDSVSSNSATWNWIRQSPSRGLEWLGRTYYGSKWHSDYAVSVKSRITINPDTSKNQISLHLNPVTPEDTAVYYCARGRSYAFDIWDQGTMVTVSS |  | no binding |
| H01 rabbit minibody (scFv-rabbit Fc) (Fc fusion) scFv-Fc: QPGLTQPPSVSLAPGQTARITCGGNNIGSKSVHWYQQKPGQAPVLVVYDDSDRPSGIPERFSGSNAGNTATLTISRVEAGDEADYYCQVWDSRSDQYVFGTRTKLTVLSGGSTITSYNVYYTKLSSSGAQVTLKESGPVLVKPTETLTLTCTVSGFSLSNARMGVSWIRQPPGKALEWLAHIFSNGEKSYSTSLKSRLTISKDTSKSQVVLTMTNMDPVDTATYYCARTLDYYDSSGYLVGGAFDIWGQGTMVTVSS |  | no binding |
| D07 rabbit minibody (scFv-rabbit Fc) (Fc fusion) scFv-Fc: SYELTQPPSVSVAPGETARMTCGGNNIGTKGVHWYQQKPGQAPVLVVYDDSDRPSGIPERFSGSNAGNTATLTISRVEAGDEADYYCQVWDSRSDQYVFGTRTKLTVLSGGSTITSYNVYYTKLSSSGAQVTLKESGPVLVKPTETLTLTCTVSGFSLSNARMGVSWIRQPPGKALEWLAHIFSNGEKSYSTSLKSRLTISKDTSKSQVVLTMTNMDPVDTATYYCARTLDYYDSSGYLVGGAFDIWGQGTMVTVSS |  | no binding |
| D07 human minibody (scFv-human Fc) (Fc fusion) scFv-Fc: SYELTQPPSVSVAPGETARMTCGGNNIGTKGVHWYQQKPGQAPVLVVYDDSDRPSGIPERFSGSNAGNTATLTISRVEAGDEADYYCQVWDSRSDQYVFGTRTKLTVLSGGSTITSYNVYYTKLSSSGAQVTLKESGPVLVKPTETLTLTCTVSGFSLSNARMGVSWIRQPPGKALEWLAHIFSNGEKSYSTSLKSRLTISKDTSKSQVVLTMTNMDPVDTATYYCARTLDYYDSSGYLVGGAFDIWGQGTMVTVSS | no binding |  |
| R26 human minibody (scFv-human Fc) (Fc fusion) scFv-Fc: SYELTQPPSVSVAPGQTATITCGGKNIESKSVHWYQQKPGQAPVLVVSDDTDRASGIPERFSGSNSGGAATLTISRVEAGDEADYYCQVWDSPSDHYVFGPGTKLTVLSGGSTITSYNVYYTKLSSSGTQVQLVESGGGVVQPGRSLRLSCAASGFTFSSYAMHWVRQAPGKGLEWVAVISYDGSNKYYADSVKGRFTISRDKAKNTLYLQMNSLRGEDTAVYYCARELSYYDSSGYLRGDWYFDLWGRGTLVTVSS | no binding |  |
| D04 human minibody (scFv-human Fc) (Fc fusion) scFv-Fc: SYVLTQPPSVSVAPGKTARITCGGNNIGWKSVHWYQQKPGQAPVLVVYNDNDRPSGVPERFSGSNSGNTATLTISRVVAGDEADYYCQVWDSSSDHVLFGGGTKLTVLSGGSTITSYNVYYTKLSSSGTQVQLVQSGAEVKKPGSSVKVSCKASGGTFSSYAISWVRQAPGQGLEWMGGIIPIFGTANYAQKFQGRVTITADESTSTAYMELSSLRSEDTAVYYCARASGRWLQFWHYYGMDVWGQGTTVTVS | no binding |  |
| D04 rabbit minibody (scFv-rabbit Fc) (Fc fusion) scFv-Fc: SYVLTQPPSVSVAPGKTARITCGGNNIGWKSVHWYQQKPGQAPVLVVYNDNDRPSGVPERFSGSNSGNTATLTISRVVAGDEADYYCQVWDSSSDHVLFGGGTKLTVLSGGSTITSYNVYYTKLSSSGTQVQLVQSGAEVKKPGSSVKVSCKASGGTFSSYAISWVRQAPGQGLEWMGGIIPIFGTANYAQKFQGRVTITADESTSTAYMELSSLRSEDTAVYYCARASGRWLQFWHYYGMDVWGQGTTVTVS |  | no binding |
| H02 human minibody (scFv-human Fc) (Fc fusion) scFv-Fc: QSVVTQPPSVSAAPGQKVTISCSGSSSNIGNNYVSWYQQLPGTAPKLLIYRDTQRPSGVPDRFSGSKSGTSASLAISGLRSEDEADYYCATWDKSLSGPVFGGGTKVTVLSGGSTITSYNVYYTKLSSSGTQVQLQQSGPGLVKPSQTLSLTCAISGDSVSSNSAAWNWIRQSPSRGLEWLGRTYYRSKWYNDYAVSVKSRIIINPDTSKNQFSLQLNSVTPEDTAVYYCARQDNNPYYGLDVWGQGTTVTVSS | no binding |  |
| E01 human minibody (scFv-human Fc) (Fc fusion) SYELTQPPSVSVAPGETARITCGGDNIGRRHVHWYQQKPGQAPVLVIYDDSDRPSGIPDRFSGSNSGNTATLTIGRVEAGDEADYYCQVWGSSNDPHVFGTGTKLTVLSGGSTITSNNVYYTKLSSSGTQVQLQQWGAGLLKPSETLSLKCAVYGGSFSGYYWGWIRQSTGKGLEWIGEINRSGSTNYNPSLKSRVTISVDTSKNQFSLKLSSVTAADTAVYYCARGGARYYYGSGSYRSTPRPYYFDYWGQGTLVTVSS | no binding |  |
